From paper PMC8196545 (Cell reports, 2021)

B1: c12286 (antibody, V domains shown)
VH: EVHLVESGGGWIHPGMALRLSCAASGFTFEDFAMHWIRQVPGKGLEWVSSITWNGRDTAYADSVKGRFTISRDNAKNSLYLQMNSLRTEDTALYYCVKDSSVSSHYFDSWGQGIMAFVSS
VL: AIQMTQSPSTLSASVGDTVTITCRASQSVSAWLAWYQQKPGKAPKLLIYKASSLQTGVPSRFSGSGSGTEFTLTINSLQPDDFATYSCQQYNFYPWTFGPGTKVEIK
B2: c7809 (antibody, V domains shown)
VH: QEQRIESVRAAVEPGASLIISCPTSGFDFDRYTMHWVRQAPGKGLEWVAVTSSQGEKKYYSEAVKGRFLITRNNFKRTLYLEMSSLKPEDAGVYYCARSQGYCGTYACYGYYYYMDVWVKGPTVIVSS
VL: QSVLTQPPSVSAAPGEKVAISCSGNTTNIEKNYVAWYQHVPETAPKLLIFENHKRPFGIPDRFSGSKSATSATLGISDLQTADEADYYCQTWDTKLHIWVFGGGTKLTVL
B3: c2842 (antibody, V domains shown)
VH: QVQLVQSGAEMKKPGSSVKVSCKASGGSFRSFTVNWVRQAPGQGLEWVGRIIAIFGSVDYAQKFQGRVTISADESTSTFYMDINSLKSEDTAVYYCVRDGLVGGRDFWGQGTQVTVSS
VL: EIVLTQSPGTLSLSPGERATLFCRASQSIKKNYVAWYQQNPGQAPRLLIYGASSRATGTPDRFRGSGSGTDFTLTISRLEPEDFAVYYCQQYGSAQYSFGQGTKLEIK
B4: c10814 (antibody, V domains shown)
V domain 1: EVRLDQSGTEMRKPGTRVRLSCKVSGHTTSDFFVHWVQQAPQRGPQWMGLINVEDENVIYADIFQGRISIVADTSKKTVFLDLTDLTFEETALYFCATHTLQKDTGDYVAAFDSWGQGTLLYVSS
V domain 2: QSVLTQPPSVSAVPGQKVIISCSGRTSNIGTNFVSWYQQFPGAAPKLLIYDNFNRPSGISDRFSASKSDTSATLAITALQAGDEAEYYCGAWDSGLNPAVFVFGSGTRVFVL
B5: c1897 (antibody, V domains shown)
VH: EVQLVQSGAEVKKPGSSVKVSCKGSGGTLNMFALSWVRQAPGQGLEWVGGIIPSFGTTNYAQKFEGRVTITADDSADESTATVHMELSSLRRDDTAVYYCARESSGRADDSLIGYFDRQGEYYFDFWGQGTLVTVSS
VL: DIQMTQSPSTLSASIGDRVTITCRASQSISTLLAWYQQKPGKAPKLLISKASSLQSGVSARFSGSGSGTEFTLTINSLQPDDFATYSCQQYNSHPVTFGQGTKLEIK
B6: c1821 (antibody, V domains shown)
VH: QVQLIQSGAEVKKPGASVKVSCKVSGYTFPEVSMHWVREAPGRGLEWVGGYDPQSAATVYAQRFQGRVTMTEDTSVDTAYMELTSLTSEDTALYFCARSIMIRYGGVIRSFAFDVWGQGTMVIVSS
VL: SSELTQDPAVSVALGQTVTITCQGDSLRQYYATWYQRKPGQAPVLVLSGKNKRFSGIPDRFSGSTSGNSASLTIIGTQAEDEADYYCSSRGSDAYPHYVFGTGTKVTVL
B7: c3214 (antibody, V domains shown)
VH: QVQLVQSGAEVKKPGSSVKVSCKASGDNFSGYGINWVRQAPGQGLEWMGRIFPMLPVPSYAQKFQGRVTITADESTNSAYLELTSLRSEDSAVYYCARGTGEGDYFDYWGQGTQVTVSS
VL: DIQMTQSPSSVSASVGDRVTITCRASQGISRYVAWYQQKPGKAPKLLIYAASSLETGVPSRFSGSGSGTDFTLTISSLEPEDFATYYCQQANSFPLTFGGGTKVEIK
B8: c8639 (antibody, V domains shown)
VH: LLQLHESGPGLVKPSEALSLTCTVSGASATNGLYWAWIRQPPGKGLEWVASLKKWRGYYNPSLGSRVTISHAPDNQISLRLESVTAADAAVYFCVGFFSSSAFDYWGRGTLVTVSS
VL: AYVLTQPPSVSVAPGKTAKISCEGNNIGQKAVHWYQQKSGQAPVLFISDGTTRTSGIPARFSGSRSGNTATLTISWVEGGDEADYYCQVMSGDTALFGGGTKLTVL
B9: c8549 (antibody, V domains shown)
VH: QVTLKESGPTLLRPADTLTLTCNFSGFSLTTDGVALGWMRQSPGKAPEWLAFLFYDDDKQYNPHLKSRLIISKASSTNQLVLAMTNMGPADAGTYFCARLNVLVHDVPPRNYGLDVWGRGITITVSS
VL: DIVLTQSPVSLSVTPGQSASMSCKSSETLLHEDGKSYLYWYLQKPGQSPQLLIYEASKRFSGVSDRFTASGTGTHFTLQIDRVEVDDVGVYYCMENLKALTFGGGTRMEIK
B10: c2718 (antibody, V domains shown)
VH: HVQLQQWGAGLLKPSETLSLTCAVYGESFSVYDWAWIRQSPGKGLEWIGEINHDGGTNYNPSLKSRVTISIDIHLRRFSLSLISVTAADTAIYYCARHIGQLEAFDYWGQGALVTVSS
VL: QSALTQPASVSGSPGQSITISCTGITSDVGDHSYVSWYQQPPGKAPQLIIYDVVNWPPGVSHRFSGSKSGNTASLTITGLRAEDEADYYCASYRRGSSVVFGGGTKVTVL
B11: c8567 (antibody, V domains shown)
VH: QQQRVETVKHAVDPGSFLIISCPTSGFTFETYAMHWVRQAPGKGLEWVAATSALGEKKYYSNAVKGRFLITRNNSKRTLYLEMSGLKAEDTAVYYCARSQGYCSDFSCYGYYYYMDVWVKGPTVIVSS
VL: QSVLTQPPSVSAAPGEKVTISCSGNTTNIGNNFVAWYQHLPQNAPKLLIYEDHKRPFGIPDRFSGSKSGTSATLGISGLQTGDEADYYCQTWDAKLLIWIFGGGTKVTVL
B12: c13173 (antibody, V domains shown)
VH: EVYLMESGGGLVQPGGSLRLSCEVSGLNRTDYWMHWIRQPPGKGLEWVSRIYSHGGGTTYADSVRGRFSLSRDSAKSTLFLEMNSLRVEDTAIYYCLFSEGDFWGPGTLVTVSS
VL: QSALTQPASLSGSPGQSITISCTGNSSDIGKSDYVSWYRQDPGKAPKLLIYDVSSRLSGISDRFSGSKSDNTASLTISGLQAEDEADYYCSSYTNWDTKVFGTGTRVTVL
B13: HC antibody RI5281 (IgG1) (antibody, V domains shown)
VH: QVRLAEFGGGVVRPGESLTLSCATSGFSFTSYGMHWVRQTPGKGLEWVAVIWNDGSRRYYSDSVQGRFTIAKDFANKTLSLQMRDLRVGDTAVYFCARAYGPQSEIDSWGQGILVTVSS
VL: SYGLTQPSSVSVSPGQTAIITCFGNILPRKSAYWYRQTAGRAPTLVIFGDNNRPSGIPARFSGFTAGTVATLVIAATQVDDEGDYYCYSADNSGNHRGVFGGGTKLTVL
B14: HC antibody RI808 (IgG1) (antibody, V domains shown)
VH: QIQLRESGPGLVKPSETLTLTCSVSGGSIFPYFYSWIRQPAGKGLEWIGRLFSNSGSVRSNPSMHTRVGFSMDRSRNQVSLTLTSVTAEDTAVYYCVRDIMREYDDINGAGGYYRGVDVWGRGTMVTVSS
VL: NFMLTQPPSVSESPGKTVTISCTRNSGSIASNSVYWYRQRPGSPPTTLIHDNNRRPTGVPDRFSASIDTSSNSASLTISSLKTEDEADYYCQSYDNGNHVIFGGGTNLLVL
B15: HC antibody RI10953 (IgG1) (antibody, V domains shown)
VH: EMRLEESGGALVKPGGSLRLSCVASGFKLSEWSLMWVRQAPGKGLQWVSSISLNQDYISYAGSVRGRFDVFRDRTQTSLLLNMNKLKTEDTGVYFCARVHAWRYFDWVNRRSPVEKVLSIDLWGRGTLVIVSS
VL: SGATQPPSVSVSKGETARITCSGVELSSQYVSWYRQRPGQSPVLVMFHNNSRASRIPERFSASDSGDTATLTIAGAQDVDEAEYYCQTWDSKNYVTFGGGTKLTVL

What follows are binders tested against T1, HIV-1 NL4-3 Env on infected cells (HIV-1 group M subtype B, NL4-3 (pNL4-3 …, strain)) (assay: not given).

Binder | binding result
B1 | binds
B2 | binds
B3 | binds
B4 | binds
B5 | binds
B6 | binds
B7 | binds
B8 | binds
B9 | binds
B10 | binds
B11 | binds
B12 | binds

These binders were tested against T1, HIV-1 NL4-3 Env on infected cells (assay: flow cytometry on cells).

Binder | binding result
B13 | binds

The binders below were run against gp120 JR-CSF (recombinant) (HIV-1, UniProt P20871) (assay: ELISA).

Binder | binding result
B13 | binds
B14 | binds
B15 | binds
